Laboratory results published in US20150010566A1 (AIMM THERAPEUTICS B V, published 2015).

Columns and labels:
[1] = biological target: T1, H3 HA1 subunit (A/Aichi/2/1968, HA1 subunit, Met-1-Arg 345) (Influenza A virus H3N2 A/Aichi/2/1968, UniProt P03437 17-345); assay: ELISA; antigen coated 1 µg/ml; recombinant antibody; parameters: concentration or dose not given beside the values
T1 construct: range 1-345; also called H3N2 A/Aichi/2/1968 HA1 subunit

[2] = biological target: T1, H3 HA1 subunit (A/Aichi/2/1968, HA1 …); assay: ELISA; HA1 subunit coated 1 µg/ml; recombinant antibody

Row | Binder | OD 450 nm [1] [OD 450 nm] | binding result [2]
1 | AT10-002 (antibody, V domains shown) VH: QLQLQESGPRLVKPSETLSLTCSVSGVSISSSNYYWGWIRQPPGKGLEWIGTIYHSGSTYYNPSLKSRLIISVDTSKNQFYLQLTSLTAADSAVYYCATGGGFGWSQTYFGYWGQGTLVTASS VL: QSALTQPASVSGSPGQSITISCTGTSSDVGAYNYVSWYQHHPGKAPKLMIYDVTYRPSGVSTRFSGSKSGNTASLTISGLQAEDEADYYCSSQSRSSTLVIFGGGTKLTVLG | -0.006 | –
2 | AT10-001 (antibody, V domains shown) VH: EVQLLESGGGLVQPGGSLRLSCAASGFSFSTYAMSWVRQAPGKGLEWVSGISGSGESTYYADSVKGRFTVSRDNSKNTLYLQMNSLRAEDTAVYYCAKQGDHIAWLLRGINFDYWGQGVLVTVSS VL: EIVLTQSPGTLSLSPGERATLSCRASQSVSSSYLAWYQQKPGQAPRLLIYGASTRATGIPDRFSGRGSGTDFTLTISSLEPEDFAVYYCQNYGSPFLFTFGPGTKVDIKR | 0.01 | no binding
3 | AT10-004 (antibody, V domains shown) VH: QVQLVQSGAEVRKPGASVKVSCKASGYTFTRHGISWVRQAPGQGLEWMGWISAYTGDTDYAQKFQGRVTMTTDTSTNTAYMELRSLRSDDAAVYYCARLRLQGEVVVPPSQSNWFDPWGQGTLVTVSS VL: EIVLTQSPATLSLYPGERATLSCRASQSVSRYLAWYQQKPGQAPRLLIYDASNRATGIPARFSGSGSGTDFTLTISSLEPEDFAVYYCQQRSNWLKITFGQGTRLEIKG | 0.096 | no binding
4 | AT10-003 (antibody, V domains shown) VH: QVHLVQSGAEVRKPGASVKVSCKVSGYTLNELSIHWLRQAPGRGLEWMGSFDPEDGETIYAQKFQGRVTMTGDTSTDTAYLELTSLRSEDTALYYCARGWGAVTSPFDFWGQGTLVTVSS VL: DIVMTQSPLSLPVTPGEPASISCRSSQSLLHSNGHIYFDWYLQKPGQSPQLLIYLVSKRASGVPDRFSGSGSGTDFTLKISRVEAEDVGVYYCMQALETPFTFGPGTKVHIKR | 1.28 | –
